# Test results reported in US20080050351A1 (Pfizer, published 2008).
# T1: lecithin:cholesterol acyltransferase (LCAT), purified from human plasma (human, UniProt P04180 25-440)
# T1 sequence (looked up): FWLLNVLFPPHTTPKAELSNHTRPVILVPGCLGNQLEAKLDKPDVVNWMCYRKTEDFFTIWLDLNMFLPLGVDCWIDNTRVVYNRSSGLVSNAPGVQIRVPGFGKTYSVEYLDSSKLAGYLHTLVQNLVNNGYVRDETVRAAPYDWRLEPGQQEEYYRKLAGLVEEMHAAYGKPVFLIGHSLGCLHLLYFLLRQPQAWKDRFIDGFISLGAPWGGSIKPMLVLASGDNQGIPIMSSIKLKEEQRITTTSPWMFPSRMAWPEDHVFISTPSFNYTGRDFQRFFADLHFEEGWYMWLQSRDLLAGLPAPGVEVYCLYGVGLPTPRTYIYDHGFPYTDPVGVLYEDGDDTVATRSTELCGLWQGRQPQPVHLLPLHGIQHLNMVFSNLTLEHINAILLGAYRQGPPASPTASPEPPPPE
# Biological target: T1, lecithin:cholesterol acyltransferase …
# Assay: cell-based or functional assay
binder,measurement,value
DVLDLFRELLEELKQKLK [peptide 221],ACTIVITY (%) LCAT,12%
